# Test results: article PMC8927147, “Global profiling of regulatory elements in the histone benzoylation pathway” (Nature Communications, 2022)
# How the values were obtained:
# Sth1BD (S. cerevisiae) = Sth1BD (S. cerevisiae) (UniProt P32597); assay: ITC; MicroCal ITC200, 20 °C, 25 mM Tris-HCl pH 8.0, 150 mM NaCl; peptides at 2.0 mM in the syringe titrated into reader domain at 0.1-0.2 mM in the cell; one-binding-site model
# [1] = biological target: H3K14ac peptide (Saccharomyces cerevisiae) (UniProt P61830); conditions: cited from earlier work
# [2] = biological target: H3K9ac peptide (Saccharomyces cerevisiae) (UniProt P61830); conditions: cited from earlier work
# [3] = biological target: H3K9cr peptide (Saccharomyces cerevisiae) (UniProt P61830); conditions: cited from earlier work
# Taf14 YEATS, sequence (P35189 1-137): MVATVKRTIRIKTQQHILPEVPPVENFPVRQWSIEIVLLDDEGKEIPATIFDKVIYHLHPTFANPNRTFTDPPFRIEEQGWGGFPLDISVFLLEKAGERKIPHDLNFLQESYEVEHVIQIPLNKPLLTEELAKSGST
# Sth1 Bromodomain, sequence (P32597 1254-1359): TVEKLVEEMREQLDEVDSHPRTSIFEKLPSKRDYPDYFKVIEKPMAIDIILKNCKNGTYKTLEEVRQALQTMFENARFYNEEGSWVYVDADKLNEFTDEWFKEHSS
# Sth1BD (S. cerevisiae), sequence (P32597 1248-1359): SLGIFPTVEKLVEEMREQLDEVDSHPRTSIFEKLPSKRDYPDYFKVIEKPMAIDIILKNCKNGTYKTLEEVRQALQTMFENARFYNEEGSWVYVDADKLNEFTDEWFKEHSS
substance,measurement,setting,value
H3K14bz peptide,Kd,Sth1BD (S. cerevisiae),89 µM
Sth1 Bromodomain (from UniProt P32597),Kd,[1],16 µM
Taf14 YEATS (from UniProt P35189),Kd,[2],334 µM
same,Kd,[3],75 µM
